What was measured:
[1] = molecular target: 4 domain CD4 (residues 1-388) with a C-terminal twin strep tag (human) (UniProt P01730); assay: SEC
[2] = molecular target: intact human C-C chemokine receptor type 5 (human) (UniProt P51681); assay: SEC
UniProt P51681, sequence (P51681 whole entry): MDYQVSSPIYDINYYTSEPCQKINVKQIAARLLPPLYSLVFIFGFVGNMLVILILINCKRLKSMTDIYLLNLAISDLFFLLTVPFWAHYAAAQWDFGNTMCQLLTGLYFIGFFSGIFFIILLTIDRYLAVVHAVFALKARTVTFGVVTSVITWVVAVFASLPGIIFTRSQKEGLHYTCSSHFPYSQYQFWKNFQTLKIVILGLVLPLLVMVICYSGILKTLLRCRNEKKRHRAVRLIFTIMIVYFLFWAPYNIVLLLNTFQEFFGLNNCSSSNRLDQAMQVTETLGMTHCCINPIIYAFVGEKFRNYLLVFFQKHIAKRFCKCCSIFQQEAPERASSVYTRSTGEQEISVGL

Row | Substance | stoichiometry N [1] | stoichiometry N [2]
1 | HIV-1 gp120 (residues 1-507) from the isolate 92BR020 with a C-terminal 6xhistidine tag (natural protein) | 1 | –
2 | preformed CD4-gp120 complex (from UniProt P01730 26-388) | – | 1
